Measurements reported in patent US20240150466A1 (DYNAMICURE BIOTECHNOLOGY, published 2024).
Changes are numbered by the printed parent chain. Like-named read-outs stand apart in the source and are kept apart here.

Columns and labels:
[1] = target: T1, mouse IGFBP7 displayed on cells (HEK293T or CHO-K1) (mouse, UniProt Q61581 26-281); assay: FACS on mIGFBP7-expressing CHO-K1 cells (FIG. 5)
T1 construct: whole, on cells;domain: CD80 transmembrane domain; also called mIGFBP7; mIGFBP7-HEK cells; not shown: linker; CD80 transmembrane domain
T1 sequence (looked up): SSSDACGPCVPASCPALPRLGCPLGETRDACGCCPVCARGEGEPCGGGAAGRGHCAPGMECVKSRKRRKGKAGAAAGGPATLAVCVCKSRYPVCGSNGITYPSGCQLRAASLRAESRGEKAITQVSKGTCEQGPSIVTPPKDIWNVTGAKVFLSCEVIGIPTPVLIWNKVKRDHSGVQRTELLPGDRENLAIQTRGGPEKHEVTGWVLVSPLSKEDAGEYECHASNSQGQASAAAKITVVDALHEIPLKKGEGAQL

[2] = target: T2, cynomolgus IGFBP7 recombinant protein (cynomolgus); assay: BLI
T2 chain: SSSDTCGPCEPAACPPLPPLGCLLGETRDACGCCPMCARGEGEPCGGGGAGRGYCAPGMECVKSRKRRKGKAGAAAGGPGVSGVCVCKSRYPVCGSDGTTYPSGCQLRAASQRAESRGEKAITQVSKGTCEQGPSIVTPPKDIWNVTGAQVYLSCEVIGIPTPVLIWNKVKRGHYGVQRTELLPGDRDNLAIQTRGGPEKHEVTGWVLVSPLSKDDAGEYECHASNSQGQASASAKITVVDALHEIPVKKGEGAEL

[3] = target: T3, mouse IGFBP7 recombinant protein (mouse, UniProt Q61581 26-281, biotinylated with EZ-LINK NHS-PEG4 biotin in the BLI assays (sites not given)); assay: BLI
T3 chain: T1 sequence (looked up)

[4] = target: T4, human IGFBP7 recombinant protein (UniProt Q16270 27-282, biotinylated with EZ-LINK NHS-PEG4 biotin in the BLI assays (sites not given)); assay: BLI
T4 chain: T2 chain with A13S, D215E

[5] = target: T3, mouse IGFBP7 recombinant protein; assay: BLI
[6] = target: T3, mouse IGFBP7 recombinant protein; assay: BLI
[7] = target: T4, human IGFBP7 recombinant protein; assay: BLI
[8] = target: T4, human IGFBP7 recombinant protein; assay: BLI
[9] = target: T5, human IGFBP7 displayed on HEK293T cells (human, UniProt Q16270 27-282); assay: flow cytometry on hIGFBP7-HEK cells (FIG. 13)
T5 construct: domain: CD80 transmembrane domain; signal peptide stated as residues 1-26; also called hIGFBP7; hIGFBP7-HEK cells; not shown: linker; CD80 transmembrane domain
T5 sequence: T2 chain with A13S, D215E
Method: (§1) After washing with FACS buffer, the cells were incubated with Alexa Fluor 488 conjugated anti-mouse IgG antibody (Jackson ImmunoResearch) for 30 minutes in 4° C. After washing with FACS buffer twice, the samples were acquired in NovoCyte Flow Cytometer and analyzed by NovoExpress software.

[10] = target: T1, mouse IGFBP7 displayed on cells …; assay: flow cytometry on mIGFBP7-HEK cells (FIG. 13)
Method: as §1

[11] = target: T6, human IGFBP7 recombinant protein (human, UniProt Q16270 27-282, biotinylated with EZ-LINK NHS-PEG4 biotin in the BLI assays (sites not given)); assay: BLI (Octet QKe), biotinylated IGFBP7 on streptavidin biosensors (FIG. 9)
T6 construct: Soluble protein used for ELISA coating and, biotinylated, on streptavidin biosensors (Octet); also called hIGFBP7; biotinylated IGFBP7 protein
T6 sequence: T2 chain with A13S, D215E
Method: (§2) The binding affinity of anti-IGFBP7 nanobody Fc-fusion constructs (e.g., VHH-Fc-fusion constructs) were determined with bio-layer interferometry (BLI) using Octet QKe (Fortebio). Human, mouse, and cynomolgus IGFBP7 were biotinylated using EZ-LINK NHS-PEG4 biotin (Thermo Fisher Scientific). Streptavidin biosensors (ForteBio) were used to load biotinylated IGFBP7 protein (300 seconds in 5 μg/mL). Baseline was stabilized for 60 seconds in 1× kinetics buffer (ForteBio) before anti-IGFBP7 Fc-fucion proteins (serial dilution) were allowed to associate for 300 seconds with captured hIGFBP7 or mIGFBP7. Then the sensors were dissociated in 1× kinetics buffer for 600 seconds. Data analysis was performed on ForteBio Data Analysis HT 11.1 software.

[12] = target: T7, mouse IGFBP7 recombinant protein (mouse, UniProt Q61581 26-281, limits assumed, biotinylated with EZ-LINK NHS-PEG4 biotin in the BLI assays (sites not given)); assay: BLI (Octet QKe), biotinylated IGFBP7 on streptavidin biosensors (FIG. 10)
T7 construct: Soluble protein in ELISA and BLI; also called mIGFBP7
T7 sequence (looked up): T1 sequence (looked up)
Method: as §2

B1: anti-IGFBP7 nanobody Fc-fusion construct derived from D4 (Fc isotype not told) (Fc fusion)
chain: VQLQESGGGLVQTGGSLRLSCAASGRSFTFSSYAMGWFRHAPGKEREFLTAITWSGDYTYYTDSVKGRSTISRDNAKNTVYLQLNNLKPEDTAVYYCAAKFSQVSAFFATVSEYEYWGQGTQVTVSS
notes: may be the same as D4-mIgG2a; not shown: mouse Fc fragment, mIgG2a or mIgG1
[1]
  binding result: binds

B2: A1-mIgG2a nanobody Fc-fusion (Fc fusion)
chain: VQLQESGGGLVQAGGSLRLSCAASGSLFAIDKWGWYRQVAGNERELVAWRYSPVSINYGDSVKGRFTVSGDSSRKRVYLQMNSLKPDDTAVYRCAAVISGAWYWGQGTQVTVSS
notes: VHH fused with mIgG2a Fc fragment, expressed in Expi293 cells, Protein G purified; also called monoclonal A1-mIgG2a; monospecific A1-mIgG2a; not shown: mouse IgG2a Fc fragment (mIgG2a Fc)
[2]
  Kd: 2.41 nM
[3]
  Kd: 25.8 nM
[4]
  Kd: 2.72 nM
[5]
  Kd: 60.1 nM
[6]
  Kd: 25.8 nM
[7]
  Kd: 2.72 nM
[8]
  Kd: 3.7 nM
[9]
  binding result: binds
[10]
  binding result: binds
[11]
  binding result: binds
[12]
  binding result: binds

B3: bispecific anti-IGFBP7 nanobody Fc-fusion construct A1-mIgG2a-D4 (bispecific antibody, V domains shown)
V domain 1: B2 chain
V domain 2: B1 chain
notes: also called A1-mIgG2a-D4-2; not shown: mouse IgG2a Fc fragment (mIgG2a Fc)
[2]
  Kd: 0.195 nM
[3]
  Kd: 1.74 nM
[4]
  Kd: 0.193 nM
[6]
  Kd: 1.74 nM
[7]
  Kd: 0.193 nM
[9]
  binding result: binds
[10]
  binding result: binds
[11]
  binding result: binds
[12]
  binding result: binds
